This note sets out measurements from PMC3181223.

Series [1] concerns the target Actin purified from rabbit muscle (rabbit) (UniProt P68135). The experiment in a line: depolymerisation of single filaments in a microfluidic flow (fluorescence microscopy); filaments grown from MgATP-actin, depolymerised in F-buffer (pH 7.8, 100 mM KCl, 1 mM MgCl2); velocities from an exponential fit of 1/vdepol against the age of F-actin, and from a direct fit of length against time; room temperature.

The subject of series [2] is P68135. The experiment in a line: depolymerisation of single filaments in a microfluidic flow (fluorescence microscopy); filaments grown from MgATP-actin, depolymerised in F-buffer (pH 7.8, 100 mM KCl, 1 mM MgCl2); velocities from an exponential fit of 1/vdepol against the age of F-actin, and from a direct fit of length …. The note with it: other: depolymerisation of single filaments in a microfluidic flow (fluorescence microscopy).

Series [3] addresses Actin purified from rabbit muscle (rabbit) (UniProt P68135). The experiment in a line: depolymerisation of single filaments in a microfluidic flow (fluorescence microscopy); MgADP-actin filaments depolymerising at different profilin concentrations; saturation curve of the off-rate fitted assuming profilin in rapid equilibrium with the barbed end; room temperature.
Series [4] shares this target. The experiment in a line: depolymerisation of single filaments in a microfluidic flow (fluorescence microscopy); CrATP-actin filaments (as ADP-Pi-actin) depolymerising at different profilin concentrations; saturation curve of the off-rate fitted assuming profilin in rapid equilibrium with the barbed end; room temperature.

Regarding “Actin purified from rabbit muscle (from UniProt P68135 1-377) (natural protein)”, in series [1], the depolymerization velocity of ADP-actin subunits at the barbed end (direct fit of length against time) came out at 6 subunits/s and the depolymerization velocity of ADP-actin subunits at the barbed end (exponential fit) is 6.2 subunits/s.
For the substance Actin purified from rabbit muscle, in series [2], the “global depolymerization velocity of ADP-Pi-actin subunits at the barbed end (direct fit of length against time)” value was 1.5 subunits/s; the “global depolymerization velocity of ADP-Pi-actin subunits at the barbed end (dissociation as ADP-Pi-actin, or Pi release and then dissociation; exponential fit)” value was 1.5±0.4 subunits/s.
In the case of “profilin-actin (from UniProt P62962 1-140; P68135 1-377) (complex)”, the off-rate constant (koff) worked out at 51.6 s⁻¹ in series [3] and 4.7 s⁻¹ in series [4].

What is called koff is a measure of how fast the partners let go of each other. Lower therefore signals slow dissociation.
